Values joined by “and” are separate entries in the source; they are usually repeats but may differ in a detail not shown here. Equal values may be shown once.
Assays:
[1] = molecular target: full-length, untagged 18.5-kDa murine MBP (A1-R168) (mouse); assay: ITC; Fyn-SH3 (0.7-1.3 mM) injected into the cell with MBP (45-80 uM); 20 mM HEPES, 100 mM NaCl, pH 7.4; 22 °C; 3 independent measurements; one-set of sites model; apparent values, first 3-4 points excluded (aggregation)
[2] = molecular target: full-length, untagged 18.5-kDa murine MBP (A1-R168) (mouse); assay: ITC; Fyn-SH3 (0.7-1.3 mM) injected into the cell with MBP (45-80 uM); 20 mM HEPES, 100 mM NaCl, pH 7.4; 37 °C; 2 independent measurements; one-set of sites model; apparent values, first 3-4 points excluded (aggregation)
[3] = molecular target: xα2(S38–S107) peptide of murine 18.5 kDa myelin basic protein (mouse); assay: NMR titration; unlabelled Fyn–SH3 titrated into 0.8 mM 15N-labelled xα2-peptide; 2D 15N-HSQC; 20 mM Hepes, 100 mM NaCl, 10% 2H2O, pH 7.4; molar ratios 1:0 to 1:1.2; fractional saturation fit of Y65 and T95 shifts; KD values are only estimates

Chain of full-length, untagged 18.5-kDa murine MBP (A1-R168) (mouse) (P02686 other isoform, or with tags, fused parts or gaps): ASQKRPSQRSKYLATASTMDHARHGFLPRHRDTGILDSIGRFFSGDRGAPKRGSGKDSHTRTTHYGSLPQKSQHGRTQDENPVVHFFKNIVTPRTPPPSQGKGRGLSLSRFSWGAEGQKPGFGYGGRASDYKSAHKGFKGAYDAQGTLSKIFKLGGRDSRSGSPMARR

| Kd [1] | stoichiometry N [1] | Kd [2] | stoichiometry N [2] | Kd [3] | Substance |
| --- | --- | --- | --- | --- | --- |
| 5 µM | 0.6 | 5 µM | 1.2 | – | Fyn-SH3 domain (Gallus gallus Fyn, residues 85-142) (from UniProt Q05876 85-142) (domain or fragment) |
| – | – | – | – | 7.6 µM and 4 µM | Fyn–SH3 domain (Gallus gallus Fyn tyrosine kinase, residues 85–142) (from UniProt Q05876 85-142) (domain or fragment) |

Source: publication PMC4266924
